# Source: US20220025032A1 (Novartis, published 2022)
# Where two headings read alike, the source gives them in different places.
# T1: membrane-bound human BTC on 293F-hBTC cells (human, UniProt P35070 32-111)
# T1 construct: the transfected construct is not described; also called membrane-anchored BTC
# T1 sequence: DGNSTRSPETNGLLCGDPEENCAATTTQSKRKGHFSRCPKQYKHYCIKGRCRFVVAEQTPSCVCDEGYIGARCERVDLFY
# T2: Human BTC (human, UniProt P35070 32-111)
# T2 construct: Soluble human BTC of the Biacore, ELISA, MSD and cell assays; also called human betacellulin; soluble human BTC
# T2 sequence: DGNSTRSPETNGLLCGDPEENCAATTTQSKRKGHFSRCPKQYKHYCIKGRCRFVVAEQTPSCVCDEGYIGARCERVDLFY
# T3: Human BTC-avitag-biotin (human, UniProt P35070 32-111, biotin on the avitag)
# T3 construct: also called biotin-BTC; soluble human BTC-avitag-biotin
# T3 sequence: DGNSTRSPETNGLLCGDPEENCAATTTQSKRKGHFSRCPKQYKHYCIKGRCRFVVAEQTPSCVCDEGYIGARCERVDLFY
# T4: Mouse BTC (mouse, UniProt Q05928 32-111, limits assumed)
# T4 sequence (looked up): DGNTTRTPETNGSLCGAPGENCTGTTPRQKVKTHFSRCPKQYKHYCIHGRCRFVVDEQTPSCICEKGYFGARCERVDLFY
# T5: Cyno BTC (cynomolgus, UniProt A0A2K5X5E5 32-111)
# T5 construct: also called cynomolgus BTC
# T5 sequence: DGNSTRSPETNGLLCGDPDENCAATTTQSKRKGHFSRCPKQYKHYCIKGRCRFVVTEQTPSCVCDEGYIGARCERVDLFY
# T6: Rat BTC (rat, UniProt Q9JJM4 32-111)
# T6 sequence: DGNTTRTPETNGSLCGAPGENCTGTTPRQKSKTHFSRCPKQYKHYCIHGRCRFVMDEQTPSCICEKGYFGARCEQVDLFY
# T7: Rabbit BTC (rabbit, UniProt G1SJ89 32-111)
# T7 sequence: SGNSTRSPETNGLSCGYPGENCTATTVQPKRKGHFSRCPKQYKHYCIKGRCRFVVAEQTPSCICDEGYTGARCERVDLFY
# Assays:
# [1] = molecular target: T1, membrane-bound human BTC on 293F-hBTC …; assay: flow cytometry on 293F cells with membrane-bound human BTC, anti-human Fab detection
# Method: (§1) After washing the cells, the cells were dissociated using Versene at 37° C. The cells were washed with FACS buffer and plated at 100 μl in a 96 well plate using cells at 1×10⁶ cells/ml. Then 100 μl of a serial dilution of antibodies starting at 50 nM was used. The cells were incubated, washed and then treated with the secondary anti-human Fab-FITC antibody. The antibodies only bound to the cells expressing BTC. After which the cells were washed and analyzed on the Attune Flow Cytometry. All data analysis was carried out using Flow Jo software.
# Human BTC [2] = molecular target: T2, Human BTC; assay: sandwich ELISA: BTC coated, Fab titrated, detection with VEGF-biotin (bridging readout)
# Method: A sandwich enzyme linked immunosorbent assay (ELISA) was performed by coating either BTC or VEGF, then adding a titration of NVS11 followed by detection with the second target, either biotinylated BTC or biotinylated VEGF. […] Neither of the single Fabs, NVS1 or NVS8, could bind to both BTC and VEGF at the same time.
# Human VEGF165 [3] = molecular target: T8, Human VEGF165 (human, UniProt P15692 27-191); assay: SPR Biacore T200, anti-Fab capture, antigen as analyte (cells shifted left after the merged BTC cell)
# T8 construct: mature; biotinylated in the VEGFR2 ELISAs; also called human VEGF-A; VEGF-A
# T8 sequence (P15692 other isoform, or with tags, fused parts or gaps): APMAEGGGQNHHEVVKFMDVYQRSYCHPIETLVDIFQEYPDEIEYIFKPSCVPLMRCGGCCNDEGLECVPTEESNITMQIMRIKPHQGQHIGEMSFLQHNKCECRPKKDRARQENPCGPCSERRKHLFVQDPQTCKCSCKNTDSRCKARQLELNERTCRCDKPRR
# Human BTC-avitag-biotin [4] = molecular target: T3, Human BTC-avitag-biotin; assay: flow cytometry, BTC-ErbB4 Cell Binding Inhibition with HKB11 cells over-expressing human ErbB4
# Method: In order to assess potency of the Fabs and bispecific in neutralizing binding of BTC to its receptor Erb 1 or ErbB4, the following assay was performed. HKB11 over-expressing either ErbB1 or ErbB4 cells were plated 1×10⁵ cells/well. Cells were washed once with FACS buffer by spun down at 1200 rpm for 5 minutes and supernatant removed. Next, the Fab sample dilutions and BTC were prepared in FACS buffer. Human BTC-avitag-biotin was diluted to a fixed concentration of 15 nM. The test Fab samples were prepared at a starting concentration of 40 nM and titrated for 9 points at a serial dilution of 1:2. Both biotin-BTC and the test Fab samples are incubated for 30 minutes at room temperature. The pre-incubated samples were then added to the cell plate at 100 μl per well in duplicate and incubated for 1 hour on ice. […]
# Measurements were performed on Attune Flow Cytometry machine. Data were analysed using the Flow Jo software. The live cell populations analysed were gated in forward and side scattering (FSC-A/SSC-A dot plot). The interval gate was established on the control histogram, which was obtained with sample incubated in streptavidin-Alexa Fluor488 only, and subsequently, determined percent of positive binding events of cells carrying membrane-bound receptor ErbB1 or ErbB4 and biotin-BTC. The median of fluorescence intensity (MFI) value was also derived for the live cell population. […]
# Human VEGF165 [5] = molecular target: T8, Human VEGF165; assay: competition ELISA: antibody pre-incubated with 400 pM VEGF-biotin, added to coated VEGFR2, streptavidin-HRP detection; y axis OD
# Method: (§2) The plates were then washed 3 times using 1λTBST. The plates were blocked in 2% BSA diluent (0.1% Tween 20/0.1% TirtonX100) overnight. After blocking, the plates were washed 3 times using TB ST and then the sample mixture was added at 20 μl/well. The sample mixture consisted a final fixed concentration of VEGF-biotin (in-house) at 400 pM and a 15 point 1:2 serial dilution of the antibody starting at 20 nM. The sample mixture was pre-incubated for 1 hour prior to adding to the plate and then incubated for another hour at room temperature on the plate. Afterwards, the plate was washed 3 times using TBST and 20 μl/well of Streptavidin-HRP diluted at 1:5000 was added for an incubation time of 1 hour. The plates were washed 3 times in TBST and then 20 μl/well of TMB substrate was added. TMB is a chromogen that yields a blue color when oxidized. TMB was incubated for 10 minutes until the signal saturated in the no antibody samples, and then 10 μl/well of 2N sulfuric acid was added which then changes the blue color to yellow and this now has a maximum absorbance at 450 nm.
# Human VEGF165 [6] = molecular target: T8, Human VEGF165; assay: as above; remark: listed apart in the source
# Method: as §2
# Human VEGF165 [7] = molecular target: T8, Human VEGF165; assay: as above; remark: listed apart in the source
# Method: as §2
# Human VEGF165 [8] = molecular target: T8, Human VEGF165; assay: competition ELISA: antibody pre-incubated with biotinylated human VEGF, added to coated human VEGFR2-Fc, streptavidin-HRP detection; blocked partner VEGFR2-Fc
# Method: NVS11 neutralization of VEGF was determined by ELISA. Various concentrations of NVS11 was pre-incubated with biotinylated human VEGF and added to VEGFR2-Fc coated plates.
# Human BTC [9] = molecular target: T2, Human BTC; assay: SPR (Biacore/ProteOn)
# Mouse BTC = molecular target: T4, Mouse BTC; assay: SPR (Biacore/ProteOn)
# Cyno BTC = molecular target: T5, Cyno BTC; assay: SPR (Biacore/ProteOn)
# Rat BTC = molecular target: T6, Rat BTC; assay: SPR (Biacore/ProteOn)
# Rabbit BTC = molecular target: T7, Rabbit BTC; assay: SPR (Biacore/ProteOn)
# Human BTC [10] = molecular target: T2, Human BTC; assay: cell-based or functional assay
# [11] = molecular target: T1, membrane-bound human BTC on 293F-hBTC …; assay: cell-based or functional assay
# Human BTC [12] = molecular target: T2, Human BTC; assay: MSD-based inhibition of BTC binding to ErbB1
# Human BTC [13] = molecular target: T2, Human BTC; assay: MSD-based inhibition of BTC binding to ErbB4
# Human BTC [14] = molecular target: T2, Human BTC; assay: cell-based inhibition of BTC binding to ErbB1
# Human BTC [15] = molecular target: T2, Human BTC; assay: cell-based inhibition of BTC binding to ErbB4
# [16] = molecular target: T1, membrane-bound human BTC on 293F-hBTC …; assay: flow cytometry, 293F cells with BTC against 293F
# Human BTC [17] = molecular target: T2, Human BTC; assay: SPR Biacore T200, anti-Fab capture, antigen as analyte
# [18] = molecular target: T1, membrane-bound human BTC on 293F-hBTC …; assay: flow cytometry on 293F cells with membrane-bound human BTC; y axis % Pos Binding
# Method: as §1
# Human BTC-avitag-biotin [19] = molecular target: T3, Human BTC-avitag-biotin; assay: flow cytometry: inhibition of biotin-BTC binding to HKB11 cells over-expressing ErbB1; y axis Fluorescent Intensity
# Method: (§3) In order to assess potency of the Fabs and bispecific in neutralizing binding of BTC to its receptor Erb 1 or ErbB4, the following assay was performed. HKB11 over-expressing either ErbB1 or ErbB4 cells were plated 1×10⁵ cells/well. Cells were washed once with FACS buffer by spun down at 1200 rpm for 5 minutes and supernatant removed. Next, the Fab sample dilutions and BTC were prepared in FACS buffer. Human BTC-avitag-biotin was diluted to a fixed concentration of 15 nM. The test Fab samples were prepared at a starting concentration of 40 nM and titrated for 9 points at a serial dilution of 1:2. Both biotin-BTC and the test Fab samples are incubated for 30 minutes at room temperature. The pre-incubated samples were then added to the cell plate at 100 μl per well in duplicate and incubated for 1 hour on ice. The plate was then washed once in FACS buffer and spun down at 1200 rpm for 5 minutes and supernatant removed. After suspending the cell pellet with 100 μl/well of diluted secondary antibody streptavidin-Alexa Fluor488 (1:2000) in FACS buffer, the cells were then incubated for 60 min on ice. The cells were washed once with FACS buffer and re-suspended in 120 μl of FACS buffer for flow cytometric analysis.
# (§4) Measurements were performed on Attune Flow Cytometry machine. Data were analysed using the Flow Jo software. The live cell populations analysed were gated in forward and side scattering (FSC-A/SSC-A dot plot). The interval gate was established on the control histogram, which was obtained with sample incubated in streptavidin-Alexa Fluor488 only, and subsequently, determined percent of positive binding events of cells carrying membrane-bound receptor ErbB1 or ErbB4 and biotin-BTC. The median of fluorescence intensity (MFI) value was also derived for the live cell population. MFI values were then used to calculate for percent inhibition of test sample and subsequently plotted in GraphPad Prism 7.03 using nonlinear regression (curve fit) model to generate IC50 value.
# Human BTC-avitag-biotin [20] = molecular target: T3, Human BTC-avitag-biotin; assay: flow cytometry: inhibition of biotin-BTC binding to HKB11 cells over-expressing ErbB4; y axis Fluorescent Intensity
# Method: as §3, §4
# Human VEGF165 [21] = molecular target: T8, Human VEGF165; assay: SPR Biacore T200, anti-Fab capture
# [22] = molecular target: T1, membrane-bound human BTC on 293F-hBTC …; assay: flow cytometry on 293F cells with membrane-bound human BTC; y axis % Pos Binding; remark: listed apart in the source
# Method: as §1
# In FIG. 6A, Flow cytometry was used to assess the binding of NVS11 to membrane-bound BTC using an anti-human Fab antibody for detection.
Kd (Human BTC [9]) [nM],Kd (Mouse BTC) [nM],Kd (Cyno BTC) [nM],Kd (Rat BTC) [nM],Kd (Rabbit BTC) [nM],ADR/Res pErbB3 (IC50 in nM) (Human BTC [10]) [nM],Neutralization of juxtacrine signaling [11] [%],MSD-based binding inhibition BTC/ErbB1 (Human BTC [12]) [%],MSD-based binding inhibition BTC/ErbB4 (Human BTC [13]) [%],Cell-based binding inhibition BTC/ErbB1 (Human BTC [14]) [%],Cell-based binding inhibition BTC/ErbB4 (Human BTC [15]) [%],"Binding to membrane-anchored BTC (median, X above 293F) [16] [X above 293F]",Kd (Human BTC [17]) [nM],IC50 (Human BTC-avitag-biotin [19]) [nM],IC50 (Human BTC-avitag-biotin [20]) [nM],Binder,other results
,,,,,,,,,,,,,,,"NVS8 (Fab, V domains shown, Fab version of the anti-VEGF 1008 scFv; also called anti-VEGF Fab) VH: EVQLVESGGGLVQPGGSLRLSCTASGFSLTDYYYMTWVRQAPGKGLEWVGFIDPDDDPYYATWAKGRFTISRDNSKNTLYLQMNSLRAEDTAVYYCAGGDHNSGWGLDIWGQGTLVTVSS VL: EIVMTQSPSTLSASVGDRVIITCQASEIIHSWLAWYQQKPGKAPKLLIYLASTLASGVPSRFSGSGSGAEFTLTISSLQPDDFATYYCQNVYLASTNGANFGQGTKLTVLK",binding result [1]: no binding (tested: about 25 nM); binding result (Human BTC [2]): no binding (tested: about 10-20 nM (last marker hidden)); Kd (Human VEGF165 [3]): 0.003 nM; binding result (Human BTC-avitag-biotin [4]): no binding (tested: about 25 nM); IC50 (Human VEGF165 [5]): 0.737 nM; IC50 (Human VEGF165 [6]): 1.35 nM; IC50 (Human VEGF165 [7]): 1.35 nM; IC50 (read off the curve) (Human VEGF165 [8]): ~0.7 nM
0.005,0.005,0.012,0.008,0.001,6.1,87,> 90,> 90,> 90,> 90,> 10,0.0043,1.61,1.8,"NVS4 (Fab, V domains shown, also called NVS4 Fab; Fab NVS4) VH: QVQLLESGGGLVQPGGSLRLSCAASGFTFSRYWISWVRQAPGKGLEWVSYIDSTGTFINYADSVKGRFTISRDNSKNTLYLQMNSLRAEDTAVYYCARGGSLFDYWGQGTLVTVSS VL: DIQMTQSPSSLSASVGDRVTITCRASQGIISYLGWYQQKPGKAPKLLIYAASSLQSGVPSRFSGSGSGTDFTLTISSLQPEDFATYYCQQYDALNTFGQGTKVEIKR",A431 pERK (IC50 in nM) (Human BTC [10]): 0.49 nM; inhibition (Human BTC [10]): 99.4%; EC50 [18]: 0.238 nM
0.0014,< 0.001,0.0054,0.02,0.017,7.89,99,> 90,> 90,> 90,> 90,> 10,0.0044,1.81,2.04,"NVS3 (Fab, V domains shown, also called Fab NVS3; anti-BTC Fab) VH: QVQLLESGGGLVQPGGSLRLSCAASGFTFSSYAMSWVRQAPGKGLEWVSGLGHVGYTTYTDSVKGRFTISRDNSKNTLYLQMNSLRAEDTAVYYCARDYLDFGYYFDVWGQGTLVTVSS VL: SYELTQPLSVSVALGQTARITCSGDKIGKKYVHWYQQKPGQAPVLVIYDDSDRPSGIPERFSGSNSGNTATLTISRAQAGDEADYYCQAWDMQSVVFGGGTKLTVLG",A431 pERK (column head: IC50 in nM; cell printed as percent) (Human BTC [10]): > 90%; binding result (Human VEGF165 [21]): no binding; EC50 [22]: 0.322 nM
